Assay results as given in the supplement of paper PMC12667976.
± gives the standard error.

B1: library; numbered along this chain (parent)
chain: MATDAALRRLLRLHRTEIAVAVDSAFPLLHALADHDVVPEDKFQETLHLKEKEGCPQAFHALLSWLLTQDSTAILDFWRVLFKDYNLERYGRLQPILDSFPKDVDLSQPRKGRKPPAVPKALVPPPRLPTKRKASEEARAAAPAALTPRGTASPGSQLKAKPPKKPESSAEQQRLPLGNGIQTMSASVQRAVAMSSGDVPGARGAVEGILIQQVFESGGSKKCIQVGGEFYTPSKFEDSGSGKNKARSSSGPKPLVRAKGAQGAAPGGGEARLGQQGSVPAPLALPSDPQLHQKNEDECAVCRDGGELICCDGCPRAFHLACLSPPLREIPSGTWRCSSCLQATVQEVQPRAEEPRPQEPPVETPLPPGLRSAGEEVRGPPGEPLAGMDTTLVYKHLPAPPSAAPLPGLDSSALHPLLCVGPEGQQNLAPGARCGVCGDGTDVLRCTHCAAAFHWRCHFPAGTSRPGTGLRCRSCSGDVTPAPVEGVLAPSPARLAPGPAKDDTASHEPALHRDDLESLLSEHTFDGILQWAIQSMARPAAPFPS

Variants of: B1
Assay: AIRE transcriptional activation functional score (insulin promoter-GFP; nonsense median 0, synonymous median 1) (normalised score); higher = higher AIRE activity (more reporter activation)
Details: with insulin promoter-GFP reporter in HEK293
Protocol: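 Deep mutational scan of full-length human AIRE (codon-optimized cDNA, DT-POPCode NNN libraries over three regions) integrated at a Bxb1 landing pad in HEK293 cells carrying an insulin core promoter-GFP reporter at a Flp-In site. Cells were sorted for the top 10% GFP about 14 days after transfection. Variant frequency log-ratios (select vs non-select, TileSeq) were rescaled so that the nonsense median is 0 and the synonymous median is 1, then averaged over biological replicates.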

| Variant | AIRE transcriptional activation functional score |
| --- | --- |
| E347S | 1.12 ± 0.17 |
| G313A | 0.829 ± 0.24 |
| H415W | 0.671 ± 0.12 |
| K501E | 0.49 ± 0.17 |
| K501S | 1.3 ± 0.21 |
| D515W | -0.15 ± 0.044 |
| F43S | 0.0986 ± 0.53 |
| A193P | 0.42 ± 0.48 |
| C472D | -0.251 ± 0.19 |
| F525V | 0.609 ± 0.6 |
| F453S | 0.166 ± 0.19 |
| G268L | 1.05 ± 0.19 |
| R473T | 1.06 ± 0.22 |
| S239W | 1.37 ± 0.059 |
| S239R | 1.13 ± 0.21 |
| S153G | 1.21 ± 0.36 |
| S153A | 0.85 ± 0.41 |
| V123H | 1.19 ± 0.59 |
| V123I | 1.17 ± 0.21 |
| T441Q | 1.35 ± 0.054 |
| E307W | 0.599 ± 0.092 |
| Q293Y | 0.958 ± 0.49 |
| Q293H | 1.18 ± 0.27 |
| Q293K | 1.16 ± 0.12 |

| Variant | AIRE transcriptional activation functional score |
| --- | --- |
| P361R | 0.983 ± 0.14 |
| L444P | 0.0281 ± 0.11 |
| L444C | 1.96 ± 0.078 |
| S156F | 1.53 ± 0.14 |
| S474P | 1.17 ± 0.28 |
| S474D | 1.33 ± 0.69 |
| G240C | 0.742 ± 0.1 |
| I74Q | 0.136 ± 0.17 |
| Q426H | 1.18 ± 0.14 |
| Q426F | 1.34 ± 0.04 |
| Y394D | 0.711 ± 0.27 |
| A205F | 0.213 ± 0.12 |
| K114S | 0.787 ± 0.21 |
| K114N | 0.632 ± 0.21 |
| W531K | 0.178 ± 0.088 |
| G54R | -0.991 ± 0.58 |
| G54T | -1.14 ± 0.59 |
| H14L | -0.153 ± 0.31 |
| H14G | 0.338 ± 0.25 |
| R15L | 0.37 ± 0.32 |
| T147F | 1.49 ± 0.13 |
| A191Q | 0.489 ± 0.13 |
| A191P | 0.647 ± 0.17 |
| V118W | 1.13 ± 0.21 |

| Variant | AIRE transcriptional activation functional score |
| --- | --- |
| E171C | 1.96 ± 0.16 |
| C340Q | 1.33 ± 0.12 |
| P357R | 1.07 ± 0.24 |
| R8L | -0.0603 ± 0.58 |
| E353F | 1.25 ± 0.11 |
| R174F | 1.53 ± 0.19 |
| A160Y | 1.08 ± 0.36 |
| A160I | 0.857 ± 0.48 |
| A160C | 1.05 ± 0.24 |
| R513S | 0.587 ± 0.3 |
| E354M | 1.47 ± 0.035 |
| M194L | 0.99 ± 0.16 |
| M194P | 0.602 ± 0.37 |
| R257P | 0.935 ± 0.26 |
| S278L | 1.01 ± 0.28 |
| L392G | 0.912 ± 0.32 |
| L392R | 1.06 ± 0.21 |
| L392E | 0.303 ± 0.068 |
| T183D | 0.425 ± 0.043 |
| T232M | 1.22 ± 0.026 |
| K294I | 0.609 ± 0.26 |
| P176V | 1.54 ± 0.26 |
| P95V | 1.12 ± 0.31 |
| N179Q | -0.585 ± 0.21 |

| Variant | AIRE transcriptional activation functional score |
| --- | --- |
| H35L | -0.231 ± 0.32 |
| P266F | 1.38 ± 0.22 |
| A540M | 0.694 ± 0.066 |
| P368C | 1.55 ± 0.16 |
| P368I | 1.29 ± 0.21 |
| R538L | 1.52 ± 0.052 |
| S339H | 1.27 ± 0.26 |
| R272S | 1.02 ± 0.3 |
| R272Q | 0.947 ± 0.41 |
| R272D | 1.21 ± 0.23 |
| R272C | 1.3 ± 0.18 |
| I224E | 1 ± 0.19 |
| V436T | 0.824 ± 0.31 |
| V436L | 0.995 ± 0.26 |
| V436Y | 1.28 ± 0.29 |
| P481V | 1.38 ± 0.086 |
| P481C | 0.688 ± 0.32 |
| G277E | 1.3 ± 0.2 |
| G277A | 1.46 ± 0.16 |
| L63D | -0.402 ± 0.66 |
| L63P | 0.339 ± 0.63 |
| P509L | 0.827 ± 0.28 |
| W455Y | 0.988 ± 0.11 |
| C434R | 0.0925 ± 0.12 |

| Variant | AIRE transcriptional activation functional score |
| --- | --- |
| C434T | 0.243 ± 0.14 |
| T463W | 1.05 ± 0.021 |
| R247V | 1.16 ± 0.41 |
| R247A | 0.732 ± 0.44 |
| T72V | 1.28 ± 0.59 |
| T72G | 0.0759 ± 0.77 |
| C437L | 0.255 ± 0.17 |
| L470M | 0.671 ± 0.069 |
| P200V | 0.795 ± 0.26 |
| P200A | 0.713 ± 0.27 |
| Y90A | 0.366 ± 0.75 |
| Y90H | 0.364 ± 0.19 |
| S506F | 0.873 ± 0.072 |
| L511Q | 0.142 ± 0.15 |
| V301L | 1.01 ± 0.19 |
| V301I | 0.84 ± 0.24 |
| H48G | 0.181 ± 0.13 |
| P148N | 0.598 ± 0.25 |
| S217W | 0.119 ± 0.035 |
| C55H | 0.145 ± 0.14 |
| C55D | 0.495 ± 0.29 |
| G486A | 0.707 ± 0.48 |
| G486C | 0.625 ± 0.26 |
| P126M | 0.141 ± 0.079 |

| Variant | AIRE transcriptional activation functional score |
| --- | --- |
| D312A | 1.19 ± 0.17 |
| R149G | 0.663 ± 0.62 |
| P367R | 1.06 ± 0.38 |
| R316Q | 1.05 ± 0.34 |
| E298I | 1.03 ± 0.45 |
| L273M | 1.19 ± 0.068 |
| R110T | 0.97 ± 0.15 |
| E296N | 1.28 ± 0.28 |
| L87V | 0.869 ± 0.25 |
| L327Q | 1.33 ± 0.21 |
| L327Y | 1.2 ± 0.3 |
| L327M | 1.3 ± 0.051 |
| L327P | 0.673 ± 0.37 |
| D4V | 0.202 ± 0.24 |
| E207G | 1.11 ± 0.21 |
| H30L | 0.0371 ± 0.59 |
| G251A | 0.845 ± 0.12 |
| G251M | 0.603 ± 0.14 |
| L175Y | 1.5 ± 0.28 |
| E485T | 1.02 ± 0.18 |
| L516G | 0.562 ± 0.066 |
| L516E | -0.232 ± 0.09 |
| E508V | 0.577 ± 0.22 |
| V37Y | 0.262 ± 0.11 |

| Variant | AIRE transcriptional activation functional score |
| --- | --- |
| L320P | 0.869 ± 0.25 |
| H454Q | 0.0498 ± 0.081 |
| A21Q | -0.205 ± 0.34 |
| L255M | -0.804 ± 0.072 |
| G197A | 0.912 ± 0.25 |
| F459H | 1 ± 0.043 |
| F459I | 0.371 ± 0.23 |
| R139N | 0.522 ± 0.21 |
| R139G | 1.2 ± 0.28 |
| V199I | 1.37 ± 0.24 |
| Q57F | 0.269 ± 0.08 |
| V214E | 0.383 ± 0.1 |
| V214H | 0.137 ± 0.25 |
| V420Q | -0.123 ± 0.3 |
| V420M | 1.43 ± 0.14 |
| V420P | 1.01 ± 0.37 |
| D198R | 0.663 ± 0.23 |
| A61I | -0.471 ± 0.2 |
| K253E | 0.587 ± 0.27 |
| K253W | 1.23 ± 0.048 |
| K253R | 0.777 ± 0.38 |
| P289W | 1.43 ± 0.15 |
| P289E | 0.531 ± 0.046 |
